The record followed here is patent US20020099180A1 (published 2002).

In the assay the target is T1, tetanus toxoid (UniProt P04958 2-1315).
T1 construct: also called TTX
Kind of assay: ELISA, wells coated with FAP or irrelevant Ag as for the chimeric scFv.

T1 sequence (P04958 2-457 limits assumed, chain 1 of 2): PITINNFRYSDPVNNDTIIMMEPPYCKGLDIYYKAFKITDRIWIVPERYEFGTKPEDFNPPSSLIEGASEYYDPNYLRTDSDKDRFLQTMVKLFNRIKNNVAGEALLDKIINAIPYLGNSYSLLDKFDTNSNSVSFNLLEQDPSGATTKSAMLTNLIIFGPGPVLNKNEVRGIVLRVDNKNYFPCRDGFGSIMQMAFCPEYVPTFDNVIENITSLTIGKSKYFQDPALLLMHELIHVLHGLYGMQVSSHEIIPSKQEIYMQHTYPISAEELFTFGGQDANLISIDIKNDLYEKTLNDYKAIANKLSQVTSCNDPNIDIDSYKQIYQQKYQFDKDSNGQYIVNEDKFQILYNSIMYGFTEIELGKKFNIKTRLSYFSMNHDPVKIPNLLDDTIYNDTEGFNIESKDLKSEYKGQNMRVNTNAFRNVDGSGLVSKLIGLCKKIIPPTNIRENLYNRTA
T1 sequence (P04958 458-1315 limits assumed, chain 2 of 2): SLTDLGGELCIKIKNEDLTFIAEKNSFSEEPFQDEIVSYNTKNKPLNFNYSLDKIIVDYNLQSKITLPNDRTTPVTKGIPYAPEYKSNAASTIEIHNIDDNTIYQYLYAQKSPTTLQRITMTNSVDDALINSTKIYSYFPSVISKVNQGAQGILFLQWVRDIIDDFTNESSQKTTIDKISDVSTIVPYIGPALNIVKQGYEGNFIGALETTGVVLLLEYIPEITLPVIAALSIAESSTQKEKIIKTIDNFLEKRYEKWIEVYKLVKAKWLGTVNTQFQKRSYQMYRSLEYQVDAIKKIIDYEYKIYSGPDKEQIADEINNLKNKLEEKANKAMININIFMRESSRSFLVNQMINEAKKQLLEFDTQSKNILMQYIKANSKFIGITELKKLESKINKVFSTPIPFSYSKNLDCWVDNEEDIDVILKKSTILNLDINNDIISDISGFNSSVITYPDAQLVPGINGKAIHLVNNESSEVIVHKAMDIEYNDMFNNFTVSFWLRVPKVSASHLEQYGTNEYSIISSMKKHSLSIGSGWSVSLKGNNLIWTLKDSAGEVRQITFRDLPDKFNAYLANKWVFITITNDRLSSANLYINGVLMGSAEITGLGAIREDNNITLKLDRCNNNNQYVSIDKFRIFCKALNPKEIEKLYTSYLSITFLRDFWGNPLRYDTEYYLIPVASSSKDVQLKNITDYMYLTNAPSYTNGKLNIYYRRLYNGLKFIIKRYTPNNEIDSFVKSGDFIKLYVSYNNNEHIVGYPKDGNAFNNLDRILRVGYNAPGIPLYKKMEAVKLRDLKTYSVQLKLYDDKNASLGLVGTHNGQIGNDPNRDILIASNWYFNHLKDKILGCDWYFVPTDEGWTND

B1: scFv #18 (VH #18, IgG; VL III43; murine HCDR3 F19) (scFv)
scFv: QVQLVQSGAELKKPGSSMKVSCKASGDTFSTYSINWVRQAPGQGLEWMGVINPSGGSTSYAQKFQGRVTMTRDTSTSTVYMELSSLRSEDTAVYYCARRRIAYGYDEGHAMDYWGQGTLVTVSSASTKGPKLEEGEFSEARVDIQMTQSPSSLSASTGDRVTITCRASQDISSYLAWYQQAPGKAPHLLMSGATTLQTGVPSRFSGSGSGTDFTLTISSLQAEDVAVYYCQQYYRTPFTFGQGTKLEIKRTVAAPSVFAA
notes: Humanised monovalent scFv, detected through the c-myc tag with 9E10; also called clone #18; VH18 YOL III43; not shown: c-myc and HIS6 tags (pOPE101), or pIII in the screening ELISA
For the molecule B1, the binding result was “no binding”.

B2: scFv #34 (VH #34, IgG; VL III43; murine HCDR3 F19) (scFv)
scFv: QVQLQQSGAEVKKPGSSVKVSCKASGGTFSTHTINWVRQAPGQGLEWMGGIAPMFGTANYAQKFQGRVTITADKSTSTAYMEMSSLRSDDTAVYYCARRRIAYGYDEGHAMDYWGQGTLVTVSSASTKGPKLEEGEFSEARVDIQMTQSPSSLSASTGDRVTITCRASQDISSYLAWYQQAPGKAPHLLMSGATTLQTGVPSRFSGSGSGTDFTLTISSLQAEDVAVYYCQQYYRTPFTFGQGTKLEIKRTVAAPSVFAA
notes: Humanised monovalent scFv, detected through the c-myc tag with 9E10; also called clone #34; VH34YOL III43; not shown: c-myc and HIS6 tags (pOPE101), or pIII in the screening ELISA
As for B2, the binding result is “no binding”.
